From patent US20020155571A1, “Triazine degrading enzymes” (priority 2000, published 2002)

How the values were obtained:
Format in all cases: biochemical
[1] = Product formation by washed and induced cells expressing triazine hydrolase, substrate N-methylpropazine; settings: 250 μM substrate, 20 ul washed and induced cells OD600 = 3 in 100 μl 10 mM NH3Acetate pH 6.8, 37° C.
[2] = Product formation by washed and induced cells expressing triazine hydrolase, substrate atrazine; settings: 250 μM substrate, 20 ul washed and induced cells in 100 μl NH3Acetate pH 6.8, 22° C.
[3] = Product formation by washed and induced cells expressing triazine hydrolase, substrate prometryn; settings: 250 μM substrate, 20 ul washed and induced cells OD600 = 3 in 100 μl 10 mM NH3Acetate pH 6.8, 37° C.
[4] = Product formation by washed and induced cells expressing triazine hydrolase, substrate atratone; settings: 250 μM substrate, 20 ul washed and induced cells in 100 μl NH3Acetate pH 6.8, 22° C.
[5] = Product formation by washed and induced cells expressing triazine hydrolase, substrate prometon; settings: 250 μM substrate, 20 ul washed and induced cells OD600 = 3 in 100 μl 10 mM NH3Acetate pH 6.8, 37° C.
[6] = Product formation by washed and induced cells expressing triazine hydrolase, substrate propazine; settings: 250 μM substrate, 20 ul washed and induced cells OD600 = 3 in 100 μl 10 mM NH3Acetate pH 6.8, 37° C.
[7] = Product formation by washed and induced cells expressing triazine hydrolase, substrate aminopropazine; settings: 250 μM substrate, 20 ul washed and induced cells OD600 = 3 in 100 μl 10 mM NH3Acetate pH 6.8, 37° C.
[8] = Product formation by washed and induced cells expressing triazine hydrolase, substrate N-methylatrazine; settings: 250 μM substrate, 20 ul washed and induced cells in 100 μl NH3Acetate pH 6.8, 22° C.
[9] = Product formation by washed and induced cells expressing triazine hydrolase, substrate aminoatrazine; settings: 250 μM substrate, 20 ul washed and induced cells in 100 μl NH3Acetate pH 6.8, 22° C.
[10] = Product formation by washed and induced cells expressing triazine hydrolase, substrate ametryn; settings: 250 μM substrate, 20 ul washed and induced cells in 100 μl NH3Acetate pH 6.8, 22° C.

B1: atzA: naturally occurring atrazine chlorohydrolase (atzA), GenBank #U55933 (protein, UniProt P72156 1-474, looked up)
Atrazine chlorohydrolase: MQTLSIQHGTLVTMDQYRRVLGDSWVHVQDGRIVALGVHAESVPPPADRVIDARGKVVLPGFINAHTHVNQILLRGGPSHGRQFYDWLFNVVYPGQKAMRPEDVAVAVRLYCAEAVRSGITTINENADSAIYPGNIEAAMAVYGEVGVRVVYARMFFDRMDGRIQGYVDALKARSPQVELCSIMEETAVAKDRITALSDQYHGTAGGRISVWPAPATTTAVTVEGMRWAQAFARDRAVMWTLHMAESDHDERIHGMSPAEYMECYGLLDERLQVAHCVYFDRKDVRLLHRHNVKVASQVVSNAYLGSGVAPVPEMVERGMAVGIGTDNGNSNDSVNMIGDMKFMAHIHRAVHRDADVLTPEKILEMATIDGARSLGMDHEIGSIETGKRADLILLDLRHPQTTPHHHLAATIVFQAYGNEVDTVLIDGNVVMENRRLSFLPPERELAFLEEAQSRATAILQRANMVANPAWRSL
0 nM/h: Product formation, substrate NMePropazine [1] | Product formation, substrate Prometryn [3] | Product formation, substrate Atratone [4] | Product formation, substrate Prometon [5] | Product formation, substrate Aminopropazine [7] | Product formation, substrate NMeAtrazine [8] | Product formation, substrate Aminoatrazine [9] | Product formation, substrate Ametryn [10]
26 nM/h: Product formation, substrate Propazine [6]
58899 nM/h: Product formation, substrate Atrazine [2]
